Experimental data as given in article PMC13070007 (2025).

Tests used:
Assay in all cases: SPR
28K30K32R = target: 28K30K32R
KFNM = target: KFNM
30K32R113R = target: 30K32R113R
30K32R56G = target: 30K32R56G

B1: TRBC1 protein (recombinant) (natural protein)
chain: DLNKVFPPEVAVFEPSEAEISHTQKATLVCLATGFFPDHVELSWWVNGKEVHSGVSTDPQPLKEQPALNDSRYCLSSRLRVSATFWQNPRNHFRCQVQFYGLSENDEWTQDRAKPVTQIVSAEAWGRADCGFTSVSYQQGVLSA
Kd (28K30K32R): 952 nM
Kd (KFNM): 173 nM

B2: TRBC2 protein (recombinant) (natural protein)
chain: DLKNVFPPKVAVFEPSEAEISHTQKATLVCLATGFYPDHVELSWWVNGKEVHSGVSTDPQPLKEQPALNDSRYCLSSRLRVSATFWQNPRNHFRCQVQFYGLSENDEWTQDRAKPVTQIVSAEAWGRADCGFTSESYQQGVLSA
Kd (30K32R113R): 41 nM
Kd (28K30K32R): 30 nM
Kd (KFNM): 61 nM
Kd (30K32R56G): 46 nM
